According to article PMC8521288:
Where two headings read alike, the source gives them in different places.

What was measured:
human MMP-9 (hMMP-9) [1] = biological target: T1, human MMP-9 (hMMP-9) (Homo sapiens, UniProt P14780 107-457); assay: AuNS aggregation by strand displacement
human MMP-9 (hMMP-9) [2] = biological target: T1, human MMP-9 (hMMP-9); assay: AuNS aggregation by strand displacement; remark: listed apart in the source

T1 sequence (P14780 107-457): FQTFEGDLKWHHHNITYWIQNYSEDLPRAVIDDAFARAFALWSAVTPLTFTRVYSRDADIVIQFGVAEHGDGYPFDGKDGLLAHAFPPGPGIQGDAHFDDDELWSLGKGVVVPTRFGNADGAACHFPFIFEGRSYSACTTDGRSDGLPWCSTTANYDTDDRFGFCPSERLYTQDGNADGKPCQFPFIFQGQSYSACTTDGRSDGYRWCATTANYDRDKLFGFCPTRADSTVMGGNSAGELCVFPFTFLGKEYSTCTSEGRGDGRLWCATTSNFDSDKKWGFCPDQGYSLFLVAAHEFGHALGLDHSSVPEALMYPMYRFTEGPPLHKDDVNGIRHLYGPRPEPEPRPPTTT

B1: control aptamer (annealed to control comp-1 on cAuNS-1; control sensor) (mixed)
DNA 1: CCGGTGTTCGAGACAAGAGTCCAGGG
DNA 2: CTCTCGAACACCGGAA
modifications: 3' ThioMC3-D (thiol) on control comp-1
Question: Does B1 bind (human MMP-9 (hMMP-9) [1])?
Answer: no binding

B2: MMP-9 aptamer (annealed to comp-1 on AuNS-1; MMP sensor) (mixed)
DNA 1: TCGTATGGCACGGGGTTGGTGTTGGGTTGG
DNA 2: GGTGTGCCATACGAAA
modifications: 3' ThioMC3-D (thiol) on comp-1
Question: Does B2 bind (human MMP-9 (hMMP-9) [2])?
Answer: binds
